This test concerns the target prefusion-stabilized SARS-CoV-2 spike protein (S-clamp) (SARS-CoV-2). The test is described as follows: SEC.

Broadly, the stoichiometry N is a count of units in the complex or per binding partner. “prefusion-stabilized SARS-CoV-2 spike protein (S-clamp)” returned a stoichiometry N of 3.

(Values after doi:10.1101/2022.01.11.475947.)
